Test results: publication PMC3437384

Legend:
[1] = target: cTnI switch peptide 147-163 (Homo sapiens) (UniProt P19429); assay: NMR; conditions: cited from earlier work
[2] = target: N-domain of cardiac troponin C with the L48Q mutation, cNTnC(L48Q) (UniProt P63316); assay: NMR titration
[3] = target: cardiac troponin I (cTnI), rat wild type (rat) (UniProt P23693); assay: ITC
Sequence of cardiac troponin I (cTnI), rat wild type (rat) (P23693 whole entry): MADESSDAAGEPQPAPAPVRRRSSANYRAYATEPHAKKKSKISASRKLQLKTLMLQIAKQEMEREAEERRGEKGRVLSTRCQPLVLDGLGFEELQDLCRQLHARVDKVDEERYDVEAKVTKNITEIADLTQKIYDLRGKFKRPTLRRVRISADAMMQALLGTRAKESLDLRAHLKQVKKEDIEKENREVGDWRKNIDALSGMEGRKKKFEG

cNTnC N-terminal domain (from UniProt P63316)
Kd [1]: 150 µM

cTnI peptide corresponding to residues 147-163, cTnI_(147-163) switch peptide
Kd [2]: 61 µM

cardiac troponin C L48Q variant, cTnC(L48Q) (from UniProt Q4PP99 1-161) (natural protein)
Kd [3]: 0.132 µM | dH [3]: -5.28 kcal/mol
